Assay results taken from patent publication US20220315661A1 (Genmab, published 2022).
Values joined by “and” are separate entries in the source; they are usually repeats but may differ in a detail not shown here. Identical values can stand only once. One block for each binder: values may come before it.

How the values were obtained:
kDR5ECDdelHis [1] = target: T1, kDR5ECDdelHis (human); test: Bio-Layer Interferometry (Octet HTX), antibody on AHC biosensor, kDR5ECDdelHis in solution, n = 2
T1 construct: DR5ECDdelHis in which the DR5 signal peptide (aa 1-57) is replaced by that of Kappa 2F8; C-terminal His tag; also called soluble recombinant extracellular domain of human DR5; human recombinant DR5
T1 chain: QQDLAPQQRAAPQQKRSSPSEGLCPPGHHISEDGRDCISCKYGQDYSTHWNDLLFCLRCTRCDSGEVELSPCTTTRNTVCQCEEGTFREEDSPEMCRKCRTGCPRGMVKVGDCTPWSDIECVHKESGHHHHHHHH

[2] = target: T2, DR5sh139-166ECDdel-FcRbHisCtag (human, with aa 139-166 replaced by the …); test: ELISA, DR5 fusion protein captured on a penta-His antibody coat, detection with HRP goat anti-human IgG F(ab')2, OD 405 nm
T2 chain: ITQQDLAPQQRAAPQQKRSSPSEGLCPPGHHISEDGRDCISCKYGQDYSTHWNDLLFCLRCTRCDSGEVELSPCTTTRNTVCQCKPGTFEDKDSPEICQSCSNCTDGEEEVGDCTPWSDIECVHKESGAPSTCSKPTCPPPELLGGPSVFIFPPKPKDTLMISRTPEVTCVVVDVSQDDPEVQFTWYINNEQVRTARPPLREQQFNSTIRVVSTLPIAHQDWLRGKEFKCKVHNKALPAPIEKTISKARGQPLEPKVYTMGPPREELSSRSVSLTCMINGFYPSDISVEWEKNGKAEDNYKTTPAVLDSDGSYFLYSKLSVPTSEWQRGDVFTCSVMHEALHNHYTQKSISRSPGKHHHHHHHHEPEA

kDR5ECDdelHis [3] = target: T1, kDR5ECDdelHis; test: Bio-Layer Interferometry (Octet HTX), antibody on AHC biosensor, kDR5ECDdelHis in solution, n = 3
DR5ECD-FcRbHisCtag = target: T3, DR5ECD-FcRbHisCtag (human); test: ELISA, DR5 fusion protein captured on a penta-His antibody coat, detection with HRP goat anti-human IgG F(ab')2, OD 405 nm
T3 construct: also called fully human DR5 antigen; extracellular domain of human DR5 natural variant P32L

[4] = target: DR5sh79-115ECDdel-FcRbHisCtag (human, with aa 79-115 replaced by the …); test: ELISA, DR5 fusion protein captured by penta-his antibody
[5] = target: T4, Cyno DR5Mfdel-K420N (cynomolgus monkey DR5 with deletion of aa 185-213 and K420N), expressed on CHO-S cells (cynomolgus monkey); test: flow cytometry on CHO-S cells expressing cynomolgus monkey DR5, average n = 4 (SD)
T4 construct: includes the signal peptide; also called CHO-S cells expressing cynomolgus monkey DR5
T4 chain: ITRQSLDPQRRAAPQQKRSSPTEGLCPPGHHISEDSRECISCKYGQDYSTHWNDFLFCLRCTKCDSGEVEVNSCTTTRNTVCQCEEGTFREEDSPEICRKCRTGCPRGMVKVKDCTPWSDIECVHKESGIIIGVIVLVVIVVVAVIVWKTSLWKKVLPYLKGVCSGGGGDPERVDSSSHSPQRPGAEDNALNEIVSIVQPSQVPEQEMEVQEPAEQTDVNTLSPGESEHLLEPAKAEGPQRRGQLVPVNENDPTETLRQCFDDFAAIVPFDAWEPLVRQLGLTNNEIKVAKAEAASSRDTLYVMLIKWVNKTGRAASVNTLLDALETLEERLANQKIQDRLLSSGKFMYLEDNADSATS

Murine DR5 = target: T5, Murine DR5 (mouse, UniProt Q9QZM4 53-381, limits assumed); test: flow cytometry (FIG. 3D)
T5 construct: also called mouse DR5; Murine DRS (Uniprot Q9QZM4)
T5 sequence (Q9QZM4 53-381 limits assumed): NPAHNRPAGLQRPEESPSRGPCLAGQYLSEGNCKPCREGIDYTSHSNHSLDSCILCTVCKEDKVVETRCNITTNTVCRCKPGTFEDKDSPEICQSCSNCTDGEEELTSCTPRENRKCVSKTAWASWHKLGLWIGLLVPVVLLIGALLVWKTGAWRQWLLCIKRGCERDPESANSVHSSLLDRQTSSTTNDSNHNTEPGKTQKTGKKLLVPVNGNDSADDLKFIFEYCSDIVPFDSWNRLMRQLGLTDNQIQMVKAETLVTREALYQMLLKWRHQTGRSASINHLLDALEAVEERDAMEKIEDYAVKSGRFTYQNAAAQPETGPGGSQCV

Kd (kDR5ECDdelHis [1]): 28.5 nM
B1: IgG1-hDR5-05 (antibody)
heavy: not shown
light: DIQLTQSPSSLSASVGDRVTITCSASSSVSYMYWYQQKPGKAPKPWIYRTSNLASGVPSRFSGSGSGTDFTLTISSLQPEDFATYYCQQYHSYPPTFGGGTKVEIKRTVAAPSVFIFPPSDEQLKSGTASVVCLLNNFYPREAKVQWKVDNALQSGNSQESVTEQDSKDSTYSLSSTLTLSKADYEKHKVYACEVTHQGLSSPVTKSFNRGEC
notes: Humanized IgG1,kappa without the E430G mutation; also called WT counterpart of IgG1-hDR5-05-E430G

EC50 (read off the curve) [2]: ~0.02 µg/mL
Kd (kDR5ECDdelHis [3]): 27.1 nM
EC50 (read off the curve) (DR5ECD-FcRbHisCtag): ~0.02 µg/mL
EC50 [5]: 0.17 µg/mL and 1.16 nM
B2: IgG1-hDR5-05-E430G (antibody)
heavy: not shown
light: DIQLTQSPSSLSASVGDRVTITCSASSSVSYMYWYQQKPGKAPKPWIYRTSNLASGVPSRFSGSGSGTDFTLTISSLQPEDFATYYCQQYHSYPPTFGGGTKVEIKRTVAAPSVFIFPPSDEQLKSGTASVVCLLNNFYPREAKVQWKVDNALQSGNSQESVTEQDSKDSTYSLSSTLTLSKADYEKHKVYACEVTHQGLSSPVTKSFNRGEC
notes: Humanized IgG1,kappa with E430G (Eu numbering); also called IgG1-DR5-05-E430G; HC hDR5-05-E430G / LC hDR5-05
binding result [4]: no binding (tested: range 0.46-1,000 ng/mL)

binding result (Murine DR5): no binding
B3: IgG1-hDR5-05-F405L (antibody)
heavy: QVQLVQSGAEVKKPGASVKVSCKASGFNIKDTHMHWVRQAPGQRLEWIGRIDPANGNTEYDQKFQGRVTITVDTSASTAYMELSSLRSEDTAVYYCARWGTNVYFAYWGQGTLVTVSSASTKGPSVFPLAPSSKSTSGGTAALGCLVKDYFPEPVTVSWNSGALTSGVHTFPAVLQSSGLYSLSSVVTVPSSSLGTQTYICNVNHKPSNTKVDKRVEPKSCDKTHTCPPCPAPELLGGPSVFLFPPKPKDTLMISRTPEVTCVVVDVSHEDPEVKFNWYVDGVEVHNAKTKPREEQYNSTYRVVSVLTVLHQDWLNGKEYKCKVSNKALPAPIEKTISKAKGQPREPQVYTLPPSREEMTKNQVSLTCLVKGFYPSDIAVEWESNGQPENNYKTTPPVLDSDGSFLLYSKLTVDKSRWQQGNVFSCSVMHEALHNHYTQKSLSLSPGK
light: DIQLTQSPSSLSASVGDRVTITCSASSSVSYMYWYQQKPGKAPKPWIYRTSNLASGVPSRFSGSGSGTDFTLTISSLQPEDFATYYCQQYHSYPPTFGGGTKVEIKRTVAAPSVFIFPPSDEQLKSGTASVVCLLNNFYPREAKVQWKVDNALQSGNSQESVTEQDSKDSTYSLSSTLTLSKADYEKHKVYACEVTHQGLSSPVTKSFNRGEC
notes: Humanized IgG1,kappa with F405L; also called HC hDR5-05-F405L / LC hDR5-05
